According to patent US20070093443A1:

Biological target: Complement C2 (human) (human) (UniProt P06681)
Assay: cell-based or functional assay

Sequence of Complement C2 (human) (human) (P06681 21-752 limits assumed): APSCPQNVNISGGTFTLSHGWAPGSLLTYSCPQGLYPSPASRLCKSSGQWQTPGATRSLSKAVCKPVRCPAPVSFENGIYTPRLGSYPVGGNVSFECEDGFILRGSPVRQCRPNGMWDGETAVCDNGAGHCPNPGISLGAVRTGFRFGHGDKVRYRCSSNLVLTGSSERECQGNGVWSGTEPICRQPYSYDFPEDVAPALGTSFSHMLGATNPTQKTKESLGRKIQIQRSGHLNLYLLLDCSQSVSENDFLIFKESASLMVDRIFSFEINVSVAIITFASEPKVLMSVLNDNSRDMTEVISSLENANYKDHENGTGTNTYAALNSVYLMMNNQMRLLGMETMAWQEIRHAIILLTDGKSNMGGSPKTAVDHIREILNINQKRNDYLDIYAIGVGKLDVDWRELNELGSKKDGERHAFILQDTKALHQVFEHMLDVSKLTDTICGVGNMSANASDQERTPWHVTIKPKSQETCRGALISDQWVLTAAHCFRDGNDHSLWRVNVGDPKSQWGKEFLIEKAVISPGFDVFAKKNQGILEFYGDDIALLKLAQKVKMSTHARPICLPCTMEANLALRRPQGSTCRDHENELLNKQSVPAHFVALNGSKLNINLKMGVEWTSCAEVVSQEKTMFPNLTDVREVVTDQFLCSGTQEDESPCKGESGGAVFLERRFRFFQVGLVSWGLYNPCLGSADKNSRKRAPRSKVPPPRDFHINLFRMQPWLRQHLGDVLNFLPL

Row | Substance | IC50 of the proteases for cleavage of C2 (Western blot densitometry, 5% human plasma, 1 h 37 C)
1 | modified MT-SP1 CB42 (Y146E) protease domain (from UniProt Q9Y5Y6 615-855) (enzyme) | 11.9 nM
2 | wildtype MT-SP1 protease domain (CB200) (from UniProt Q9Y5Y6 615-855) (enzyme) | 15.7 nM
